Experiments:
soybean plants = test: Greenhouse glyphosate spray of T0 soybean plants expressing GAT transgenes (discoloration score); format: in vivo; conditions: for number of events @ 3-6 / number of events @ 7-8: count in parentheses
Method: Soybean plants expressing GAT variant transgenes were produced using the method of particle gun bombardment (see Klein et al. (1987) Nature 327:70-73) using a DuPont Biolistic PDS1000/He instrument. The selection agent used during the transformation process was hygromycin. Either the hygromycin selectable marker gene remained in the transgenic events or the hygromycin gene was excised by methods known in the art. DNA fragments were prepared with a synthetic constitutive promoter, a GAT variant and PinII terminator. The selectable marker gene, comprising the 35S CaMV promoter, HPT gene and NOS terminator, was cobombarded with the GAT gene variant as described above. Bombarded soybean embryogenic suspension tissue was cultured for one week in the absence of selection agent. Embryogenic suspension tissue was placed in liquid selection medium for 6 weeks. Putative transgenic suspension tissue was sampled for PCR analysis to determine the presence of the GAT gene. Putative transgenic suspension culture tissue was maintained in selection medium for 3 weeks to obtain enough tissue for plant regeneration. Suspension tissue was matured for 4 weeks using standard procedures; matured somatic embryos were desiccated for 4-7 days and then placed on germination induction medium for 2-4 weeks. Germinated plantlets were transferred to soil in cell pack trays for 3 weeks for acclimatization. Plantlets were potted to 10-inch pots in the greenhouse for evaluation of glyphosate resistance.
To determine the level of glyphosate resistance of transgenic soybeans expressing the GAT variant transgenes, T0 plants were sprayed with glyphosate (Roundup ULTRA MAX™) in the greenhouse. Plant resistance levels were evaluated by […] • 7=minor leaf/stem discoloration • 5=worse leaf/stem discoloration • 3=severely discolored plant or dying plant • 1=dead plant
One to four plants were sent to the greenhouse from each independent transgenic event. An additional 1-2 plants per event were grown in controlled environment growth chambers for seed production and were not sprayed with glyphosate. The greenhouse plants were sprayed at 1×, 2× or 4× glyphosate (1× glyphosate=26 ounces/acre of RoundUp ULTRA MAX™) 3-4 weeks after transfer to soil. The T0 plant discoloration scores with 2× and 4× spray rates are shown in Table 10 and Table 11, respectively.

tobacco plants = test: Herbicide spray tests of GAT expressing tobacco plants; format: in vivo, Nicotiana tabacum; conditions: transgenic GAT tobacco; for plant response two weeks after glyphosate spray: 0.5, 2 or 4× glyphosate (1× = 32 oz/acre of 40% ai); for survival after second spray: 8× glyphosate dose three weeks later
Method: Tobacco shoots generated as described in EXAMPLE 9 were excised from the explants and transferred to basal root induction (BRI) medium composed of half-strength Murashige and Skoog (MS) medium, pH 5.7, with 1.5% sucrose, 0.3% Gelrite, 0-200 uM glyphosate and 400 ug/ml Timentin. Rooted plants and axillary shoots were clonally propagated by cutting the stem and transferring it to fresh BRI medium until the desired number of clones was obtained. Rooted plants were carefully removed from the solid medium. Prior to placing the plants into small pots of soil, the roots were washed to remove any remaining Gelrite. A protective plastic cover was kept over the plants for at least one week until the plants were well established.
To determine if GAT expressing tobacco plants could tolerate simulated field rate sprays of glyphosate, clonal lines of several events per GAT variant were tested. A typical test was set up as follows: One clone from each event was sprayed with 1 ml of solution containing the isopropylamine salt of glyphosate (Sigma P5671) and 0.125% Triton X-100, pH 6.8 such that the amount of active ingredient sprayed was equivalent to that present in commercial glyphosate products. For example, to achieve 32 oz/acre (1×) of herbicide containing 40% active ingredient (“ai”), 2.4 ul of 40% ai formulation was diluted into 1 ml water and sprayed on a plant in a 4-inch square pot (16 in^2). A mock application (0×) with surfactant only was also included. In some cases a second spray was applied 1-4 weeks later. Plants were kept in controlled growth rooms at 25° C. and 70% humidity with 16 hr light.
Seed-grown wild type plants were also sprayed. […] All 0× plants were healthy, including the non-GAT control plants. Three weeks later all of the surviving plants were sprayed with an 8× dose.

[1] = Standard protocol for determination of kcat and KM (continuous spectrophotometric assay, Acetyl CoA hydrolysis at 235 nm); format: biochemical; conditions: purified protein; about 23° C.; 20 mM HEPES pH 6.8, 10% ethylene glycol, 0.2 mM acetyl CoA
Outline: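 KM from initial rates over 0.125–10 mM glyphosate, fitted by Lineweaver-Burke transformation of Michaelis-Menten; kcat/KM computed as kcat divided by KM. Continuous spectrophotometric read of acetyl-CoA hydrolysis at 235 nm.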

[2] = Transfer of the propionyl group from propionyl CoA to glyphosate (DTNB); format: biochemical; conditions: 1 mM propionyl CoA, 5 mM glyphosate or no glyphosate, 30 minutes
Method: The ability of GAT variants (B6 (SEQ ID NO:7), 0—6D10 (SEQ ID NO:448), 17-15H3 (SEQ ID NO:601), and 20-8H12 (SEQ ID NO:816)) to transfer the propionyl group from propionyl CoA to glyphosate was tested in reaction mixtures containing 5 mM glyphosate or no glyphosate. Propionyl CoA was present at 1 mM. After 30 minutes the reactions were terminated and the presence of free […] was determined by the addition of DTNB.

maize plants = test: Effect of temperature variation on glyphosate tolerance of T1 maize expressing GAT transgenes; format: in vivo; conditions: cool/cold, warm and hot conditions; 0×, 4×, 6×, 8× at V2; scored at 5 and 14 days
Method: Maize plants expressing GAT variant transgenes 10—4F2 (SEQ ID NO:202), 17-15H3 (SEQ ID NO:549), and 18-28D9b (SEQ ID NO:814) were produced using the methods described in Example 13. The effect of temperature on glyphosate tolerance was evaluated in T1 plants. The T1 plants were grown in cool/cold (day 14° C., night 8° C.), warm (day 28° C., night 20° C.), and hot (day 37° C., night 20° C.) conditions. T1 plants were sprayed at V2 with four different glyphosate spray treatments (0×, 4×, 6×, and 8×). Plants were scored at 5 and 14 days after treatment for leaf discoloration and plant height comparisons as described in Example 13.

[3] = 10 days after 2X glyphosate (1× = 26 ounces/acre), 7=minor leaf/stem discoloration
[4] = 10 days after 2X glyphosate, 5=worse discoloration, 3=severely discolored or dying

B1: SEQ ID NO: 824: GAT gene variant expressed in transgenic soybean (nucleic acid)
DNA: ATGATAGAGGTGAAACCGATTAACGCAGAGGATACCTATGAACTAAGGCATAGAATACTCAGACCAAACCAGCCGATAGAAGCGTGTATGTTTGAAAGCGATTTACTTCGTGGTGCATTTCACTTAGGCGGCTTTTACAGGGGCAAACTGATTTCCATAGCTTCATTCCACCAGGCCGAGCACTCGGAACTCCAAGGCCAGAAACAGTACCAGCTCCGAGGTATGGCTACCTTGGAAGGTTATCGTGAGCAGAAAGCGGGATCAACTCTAGTTAAACACGCTGAAGAAATCCTTCGTAAGAGGGGGGCGGACATGCTTTGGTGTAATGCGAGGACATCCGCCTCAGGCTACTACAAAAAGTTAGGCTTCAGCGAGCAGGGAGAGATATTTGACACGCCGCCAGTAGGACCTCACATCCTGATGTATAAAAGGATCACATAA
modifications: Synthetic DNA Sequence; CDS (1)...(441); 18-28D9c
notes: GAT gene variant expressed in transgenic soybean
With B1 the “% EVENTS @ 7-8” value (soybean plants; [3]) was 8%, the “% EVENTS @ 3-6” value (soybean plants; [4]) was 74% and the “number of events @ 3-6” value (soybean plants; 10 days after 2X glyphosate) was 23. For the same molecule, the “number of events @ 7-8” value (soybean plants; 10 days after 2X glyphosate) was 3, the “% EVENTS @ 3-6” value (soybean plants; 10 days after 4X glyphosate) was 43% and the “% EVENTS @ 7-8” value (soybean plants; 10 days after 4X glyphosate) was 8%. For the same molecule, the “number of events @ 3-6” value (soybean plants; 10 days after 4X glyphosate) was 10 and the “number of events @ 7-8” value (soybean plants; 10 days after 4X glyphosate) was 2.

B2: SEQ ID NO: 190: evolved GAT gene (nucleic acid)
DNA: ATGATAGAGGTGAAACCGATTAACGCAGAGGATACCTATGAACTAAGGCATAAAATACTCAGACCAAACCAGCCGATAGAAGCGTGTATGTATGAAAGCGATTTACTTCGTGGTGCATTTCACTTAGGCGGCTTTTACAGGGGCAAACTGATTTCCATAGCTTCATTCCACCAGGCCGAGCACTCAGACCTCCAAGGCCAGAAACAGTACCAGCTCCGAGGTATGGCTACCTTGGAAGGTTATCGTGATCAGAAAGCGGGATCGAGTCTAATTAGACACGCTGAACAAATTCTTCGTAAGAGGGGGGCGGACTTGCTTTGGTGCAATGCGCGGACATCCGCCTCAGGCTACTACAAAAAGTTAGGCTTCAGCGAGCAGGGAGAGATATTTGATACGCCGCCAGTAGGACCTCACATCCTGATGTATAAAAGGCTCACA
modifications: Synthetic DNA Sequence; 0_5B8
notes: evolved GAT gene
In the case of B2, the “plant response two weeks after glyphosate spray” value (tobacco plants) is reported as “survived the spraying procedure without signs of glyphosate damage” and the “survival after second spray” value (tobacco plants) is reported as “all GAT plants survived”.

B3: SEQ ID NO: 448: GAT polypeptide (protein)
chain: MLEVKPINAEDTYELRHKILRPNQPLEVCMYETDLLRGAFHLGGFYRGKLISIASFHQAEHSDLQGQKQYQLRGMATLEGYRDQKAGSSLIRHAEQILRKRGADMLWCNARTSASGYYKKLGFSEQGEVFETPPVGPHILMYKRLT
modifications: 0_6D10
notes: GAT polypeptide
In the case of B3, the Kcat [1] is reported as 1.85 s⁻¹ and the “transfer of propionyl group to glyphosate” value (from here on “transfer of propionyl group”) [2] is reported as “glyphosate-dependent hydrolysis of propionyl CoA”.

B4: SEQ ID NO:601: GAT variant polypeptide (protein)
chain: MIEVKPINAEDTYELRHRILRPNQPIEACMFESDLLRGAFHLGGYYGGKLISIASFHQAEHSELQGQKQYQLRGMATLEGYREQKAGSSLIKHAEEILRKRGADLLWCNARTSASGYYKKLGFSEQGEVFDTPPVGPHILMYKRIT
modifications: D_S00260796_17-15H3
notes: GAT variant polypeptide
In the case of B4, the “transfer of propionyl group” value [2] is reported as “glyphosate-dependent hydrolysis of propionyl CoA”.

B5: SEQ ID NO:816: GAT variant (protein)
chain: MIEVKPINAEDTYELRHRVLRPNQPIEACIFESDLMRGAFHLGGFYGGRLISVASFHQAEHSELQGQKQYQLRGMATLEGYREQKAGSSLVKHAEEILRKRGADLLWCNARTSASGYYKKLGFSEQGEVFDTPPVGPHILMYKRIT
modifications: Synthetic DNA Sequence; CDS (1)...(441); 20-8H12c
notes: GAT variant
For B5, the “transfer of propionyl group” value [2] was “glyphosate-dependent hydrolysis of propionyl CoA”.

B6: SEQ ID NO: 193: GAT gene variant (nucleic acid)
DNA: ATGCTAGAGGTGAAACCGATTAACGCAGAGGATACCTATGAACTAAGGCATAGAATACTCAGACCAAACCAGCCGATAGAAGCGTGTATGTATGAAAGCGATTTACTTCGTGGTGCATTTCACTTAGGCGGCTATTACAGGGGCAAACTGATTTCCATAGCTTCATTCCACCAGGCCGAGCACTCAGAACTCCAAGGCCAGAAACAGTACCAGCTCCGAGGTATGGCTACCTTGGAAGGTTATCGTGAGCAGAAAGCGGGATCGAGTCTAATTAAACACGCTGAAGAAATTCTTCGTAAGAGGGGGGCGGACTTGCTTTGGTGTAATGCGCGGACATCCGCCTCAGGCTACTACAAAAAGTTAGGCTTCAGCGAGCAGGGAGAGATATTTGAAACGCCGCCAGTAGGACCTCACATCCTGATGTATAAAAGGATCACATAA
modifications: Synthetic DNA Sequence; 0_5D3
notes: GAT gene variant
With B6 the “plant response two weeks after glyphosate spray” value (tobacco plants) was “survived the spraying procedure without signs of glyphosate damage”, the “survival after second spray” value (tobacco plants) was “all GAT plants survived” and the “% EVENTS @ 7-8” value (soybean plants; [3]) was 15%. The “% EVENTS @ 3-6” value (soybean plants; [4]) was 11%, the “number of events @ 3-6” value (soybean plants; 10 days after 2X glyphosate) was 3 and the “number of events @ 7-8” value (soybean plants; 10 days after 2X glyphosate) was 4.

B7: SEQ ID NO:202: GAT variant transgene (nucleic acid)
DNA: ATGCTAGAGGTGAAACCGATTAACGCAGAGGATACCTATGAACTAAGGCATAGAATACTCAGACCAAACCAGCCGATAGAAGCGTGTATGTTTGAAAGCGATTTACTTCGTGGTGCATTTCACTTAGGCGGCTTTTACAGGGGCAAACTGATTTCCATAGCTTCATTCCACCAGGCCGAGCACTCAGAACTCCAAGGCCAGAAACAGTACCAGCTCCGAGGTATGGCTACCTTGGAAGGTTATCGTGAGCAGAAAGCGGGATCGAGTCTAATTAGACACGCTGAAGAAATTCTTCGTAAGAGGGGGGCGGACATGCTTTGGTGTAATGCGCGGACATCCGCCTCAGGCTACTACAAAAAGTTAGGCTTCAGCGAGCAGGGAGAGATATTTGAAACGCCGCCAGTAGGACCTCACATCCTGATGTATAAAAGGCTCACATAA
modifications: Synthetic DNA Sequence; 10_4F2
notes: GAT variant transgene
For B7, the “effect of temperature on glyphosate tolerance” value (maize plants) was “glyphosate tolerance is not adversely effected by the range of temperatures tested”.
